Results published in article PMC7504393 (International Journal of Molecular Sciences, 2020).

Tests used:
[1] = molecular target: T1, recombinant human YKL-40 protein (hYKL-40) (Homo sapiens, UniProt P36222); experiment: ELISA; hYKL-40 coated at 2 ug/mL (30 uL per well, overnight, 4 °C); serially diluted Fabs, 1 h at 37 °C; detection with HRP-conjugated StrepMAB-Classic; apparent affinity (EC50); conditions: both partners purified
T1 construct: human YKL-40 (chitinase-3-like 1, CHI3L1), recombinant protein from Sino Biological; also called chitinase-3-like 1; CHI3L1; source: bought: Sino Biological

recombinant mouse YKL-40 = molecular target: T2, recombinant mouse YKL-40 (Mus musculus, UniProt Q61362); experiment: western blot; H1 (IgG) as the probing antibody on recombinant human and mouse YKL-40 (Figure S5); conditions: both partners purified
T2 construct: mouse YKL-40 (chitinase-3-like protein 1), recombinant

[2] = molecular target: T1, recombinant human YKL-40 protein …; experiment: BLI; Octet QK384; hYKL-40 amine-coupled to AR2G tips (15 ug/mL, 10 mM sodium acetate pH 5.0); H1 (IgG) 50 nM~0 nM in 2-fold dilutions in PBS with 0.09% Tween 20; 1:1 binding model; apparent KD; conditions: both partners purified
[3] = molecular target: T1, recombinant human YKL-40 protein …; experiment: ELISA; soluble ELISA of serially diluted IgGs on immobilized hYKL-40 surfaces; apparent affinity (EC50); conditions: both partners purified
[4] = molecular target: T3, native YKL-40 from murine cells (Mus musculus, UniProt Q61362); experiment: western blot; H1 (IgG) as the probing antibody on lysates of human and murine cells (Figure S5); conditions: one partner purified
T3 construct: mouse YKL-40 (chitinase-3-like protein 1), endogenous in murine cells; source: endogenous, murine cell lysates (including mouse lung cells)
T3 sequence (Q61362 30-389): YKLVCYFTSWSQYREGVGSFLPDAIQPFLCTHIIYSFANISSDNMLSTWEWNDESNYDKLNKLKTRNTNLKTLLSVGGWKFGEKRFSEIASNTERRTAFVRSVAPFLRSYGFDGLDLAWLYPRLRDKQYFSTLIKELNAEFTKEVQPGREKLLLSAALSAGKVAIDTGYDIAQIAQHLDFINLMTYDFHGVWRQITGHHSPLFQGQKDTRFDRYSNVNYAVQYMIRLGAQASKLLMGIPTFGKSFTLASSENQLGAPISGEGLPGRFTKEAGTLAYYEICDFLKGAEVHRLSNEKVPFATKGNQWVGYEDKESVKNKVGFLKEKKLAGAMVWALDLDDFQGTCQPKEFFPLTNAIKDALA

T1 sequence (P36222 22-383): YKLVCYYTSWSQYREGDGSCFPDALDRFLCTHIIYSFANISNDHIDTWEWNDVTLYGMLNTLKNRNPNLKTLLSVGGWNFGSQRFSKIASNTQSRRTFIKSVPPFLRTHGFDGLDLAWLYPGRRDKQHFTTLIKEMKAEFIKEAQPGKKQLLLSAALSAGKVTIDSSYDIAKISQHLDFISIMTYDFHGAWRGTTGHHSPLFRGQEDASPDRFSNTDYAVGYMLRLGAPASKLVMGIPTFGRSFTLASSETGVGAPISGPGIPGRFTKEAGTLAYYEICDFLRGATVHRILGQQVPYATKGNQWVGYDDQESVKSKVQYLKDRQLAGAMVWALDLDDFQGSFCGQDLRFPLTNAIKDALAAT
T2 sequence (Q61362 30-389): as the sequence (Q61362 30-389) above

EC50 [1] [nM] | binding result (recombinant mouse YKL-40) | Kd [2] [nM] | EC50 [3] [nM] | binding result [4] | Binder
2.3 |  |  |  |  | H1 (Fab), human anti-hYKL-40 Fab (Fab, V domains shown, heavy chain (VH-CH1) of the H1 Fab, from the synthetic library KFab-I (human VH3 framework, randomised CDRs); light chain (VL-CL) of the H1 Fab, from the synthetic library KFab-I (human Vk1 framework, randomised CDRs); it is written on the heavy chain as a surmise; Expression vector pKFAB (in-house); source: E. coli Top10F', periplasmic extract, purified (Strep-Tactin XT)) VH: EVQLVESGGGLVQPGGSLRLSCAASGFTFSNYAMSWVRQAPGKGLEWVSGISGSGGTTYYADSVKGRFTISRDNSKNTLYLQMNSLRAEDTAVYYCAGVGTFDVWGQGTLVTVSS VL: DIQMTQSPSSLSASVGDRVTITCRASQTISSWLNWYQQKPGKAPKLLIYAASRLQSGVPSRFSGSGSGTDFTLTISSLQPEDFATYYCQQSYSTPLTFGQGTKVEIK
 | binds | 0.05 | 0.5 | binds | H1 (IgG), human anti-hYKL-40 IgG (antibody, V domains shown, VH of H1, as in the heavy chain of m2 (PDB 7CJ2); human VH3 framework; human IgG1 heavy-chain constant region, from the heavy-chain vector (pOptiVEC) used for Herceptin expression as IgG1 backbone; VL-CL (Vk1, Ck1) of H1, as the light chain of m2 (PDB 7CJ2); IgG1, kappa; VL and CL were amplified and joined by overlap extension PCR; VH was cloned into the Herceptin IgG1 backbone; also called H1 …) VH: EVQLVESGGGLVQPGGSLRLSCAASGFTFSNYAMSWVRQAPGKGLEWVSGISGSGGTTYYADSVKGRFTISRDNSKNTLYLQMNSLRAEDTAVYYCAGVGTFDVWGQGTLVTVSS VL: DIQMTQSPSSLSASVGDRVTITCRASQTISSWLNWYQQKPGKAPKLLIYAASRLQSGVPSRFSGSGSGTDFTLTISSLQPEDFATYYCQQSYSTPLTFGQGTKVEIK
